Changes are numbered by the printed parent chain. In names and notes the source's numbering stands.
Columns and labels:
Monkey CD3 = molecular target: T1, Monkey CD3 (monkey); test: flow cytometry, monkey T cells
T1 construct: whole, on cells; also called CD3 of monkey CD3 positive T cells

Human CD38 = Human CD38 (human, UniProt P28907 43-300); test: flow cytometry, MM.1S or RPMI 8226 cells
Source text: 1) Cell preparation: T cells isolated from CD3-positive human whole blood were used for a CD3 end affinity detection of multifunctional antibody molecule; positive tumor cells of corresponding antigen were used for detecting affinity of tumor antigen; for example, CD38-positive MM. 1S cells (purchased from the Cell Resource Center of Shanghai Institutes for Biological Sciences, Chinese Academy of Sciences) or RPMI 8226 cells (purchased from the Cell Resource Center of Shanghai Institutes for Biological Sciences, Chinese Academy of Sciences) were used for CD38 antigen detection, and PD-L1 positive H358 cells (purchased from the Cell Resource Center of Shanghai Institutes for Biological Sciences, Chinese Academy of Sciences) were used for PD-L1 antigen detection, and so on. The cells were resuspended with 1% FBS-PBS, adjusted to a density of 4×10⁶/ml, and 50 μl of cells were taken from each well, and then plated at 2×10⁵ per well. Cell plating was operated on ice
2) Addition of the antibody: according to the experimental design, the antibody was diluted gradually, and dilution of antibody was operated on ice. For example, the initial concentration of antibody for dilution was 3000 nM, and the antibody was diluted by 3 times with 11 concentration gradients. The diluted antibody was added to a cell well at 50 μl per well, mixed well, and shaked and incubated at 4° C. 1100 rpm/min for 2 h; after washing, the cells were resuspend in 1% FBS-PBS, and a diluted secondary antibody PE anti-human IgG FC (Biolegend, 409304) was added with a final concentration of 8 ug/ml and a volume of 50 μl/well. At the same time, a well only added with cells and secondary antibody was set as a control, the components were mixed well, and incubated under shaking at 1100 rpm/min at 4° C. for 1 h;
5) Data analysis: the data was analyzed by a flow analysis software FlowJo 7.6 thereby obtaining an average fluorescence intensity of the specific antibody concentration, plotted by a Graphpad Prism 5 with the antibody concentration (nM) as an abscissa and the average fluorescence intensity as an ordinate; the EC50 value was calculated by the method of One site—Specific binding, and the EC50 value indicated the cell affinity of the antibody to the corresponding target antigen.

Human CD3ε = molecular target: T2, Human CD3ε (human, UniProt P07766 23-126); test: flow cytometry, human T cells
T2 construct: CD3 on T cells isolated from human whole blood
Summary of the method: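 First, cells were plated on ice at 2×10⁵ per well; second, antibody dilutions (top 3000 nM, 3-fold steps) were added for 2 h at 4° C; third, after washing, PE anti-human IgG Fc (final 8 ug/ml) was added for 1 h at 4° C. EC50 was then fitted from MFI versus concentration.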

B1: CD38-M1-G2-2 (bispecific antibody, human IgG1, kappa)
chain: QVQLVESGGGVVQPGRSLRLSCAASGFTFSTYAMNWVRQAPGKGLEWVARIRSKYNNYATYYADSVKDRFTISRDDSKNTLYLQMNSLRAEDTAVYYCARHGNFGNSYVSWFAYWGQGTLVTVSSGGGGSGGGGSGGGGSQTVVTQEPSLTVSPGGTVTLTCRSSTGAVTTSNYANWVQQKPGQAPRGLIGGTNKRAPGVPARFSGSLLGGKAALTLSGVQPEDEAEYYCALWYSNLWVFGGGTKVEIKGRGRGSDKTHTCPPCPAPPVAGPSVFLFPPKPKDTLMISRTPEVTCVVVDVSHEDPEVQFNWYVDGVEVHNAKTKPREEQFNSTFRVVSVLTVVHQDWLNGKEYKCKVSNKGLPAPIEKTISKTKGQPREPQVCTLPPSRDELTKNQVSLSCAVKGFYPSDIAVEWESNGQPENNYKTTPPVLDSDGSFFLVSKLTVDKSRWQQGNVFSCSVMHEALHNHYTQKSLSLSPGK
heavy: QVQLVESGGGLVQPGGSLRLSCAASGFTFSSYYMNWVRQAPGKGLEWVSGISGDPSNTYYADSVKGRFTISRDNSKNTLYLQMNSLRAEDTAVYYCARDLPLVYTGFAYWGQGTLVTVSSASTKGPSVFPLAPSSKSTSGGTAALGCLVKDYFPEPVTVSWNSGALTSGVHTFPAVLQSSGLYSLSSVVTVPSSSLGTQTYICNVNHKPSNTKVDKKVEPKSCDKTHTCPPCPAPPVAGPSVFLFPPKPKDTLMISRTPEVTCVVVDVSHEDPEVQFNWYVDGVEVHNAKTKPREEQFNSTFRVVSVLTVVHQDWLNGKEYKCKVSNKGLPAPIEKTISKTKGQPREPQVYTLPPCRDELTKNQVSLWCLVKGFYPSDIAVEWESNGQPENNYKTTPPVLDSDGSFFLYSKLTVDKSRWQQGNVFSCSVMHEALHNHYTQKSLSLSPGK
light: DIELTQPPSVSVAPGQTARISCSGDNLRHYYVYWYQQKPGQAPVLVIYGDSKRPSGIPERFSGSNSGNTATLTISGTQAEDEADYYCQTYTGGASLVFGGGTKLTVLGQRTVAAPSVFIFPPSDEQLKSGTASVVCLLNNFYPREAKVQWKVDNALQSGNSQESVTEQDSKDSTYSLSSTLTLSKADYEKHKVYACEVTHQGLSSPVTKSFNRGEC
notes: structure 1; CD38 (MOR) x CD3; CH2 G2CH2
- EC50 (Monkey CD3): 0.491 µM
- EC50 (Human CD38): 0.104 µM
- EC50 (Human CD3ε): 0.478 µM

B2: CD38-M1-SG2-2 (bispecific antibody, human IgG1, kappa)
chain: B1 chain with C264S
heavy: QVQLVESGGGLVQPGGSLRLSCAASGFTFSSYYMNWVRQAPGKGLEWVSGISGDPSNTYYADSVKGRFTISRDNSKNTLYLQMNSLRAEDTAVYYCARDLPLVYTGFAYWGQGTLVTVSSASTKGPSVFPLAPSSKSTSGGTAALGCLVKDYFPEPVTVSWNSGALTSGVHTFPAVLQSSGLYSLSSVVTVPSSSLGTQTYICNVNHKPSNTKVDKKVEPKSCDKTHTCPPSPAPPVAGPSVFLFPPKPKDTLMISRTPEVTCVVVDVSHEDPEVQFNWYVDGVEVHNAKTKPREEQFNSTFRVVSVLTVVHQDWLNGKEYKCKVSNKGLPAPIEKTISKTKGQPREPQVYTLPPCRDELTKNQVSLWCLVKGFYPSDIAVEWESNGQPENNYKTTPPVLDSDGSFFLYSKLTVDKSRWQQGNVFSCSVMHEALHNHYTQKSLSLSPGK
light: B1 light
notes: structure 1; CD38 (MOR) x CD3; CH2 SG2CH2
- EC50 (Monkey CD3): 0.461 µM
- EC50 (Human CD38): 0.106 µM
- EC50 (Human CD3ε): 0.437 µM

B3: CD38-M1-G2D-1 (bispecific antibody, human IgG1, kappa)
chain: B1 chain with D304A
heavy: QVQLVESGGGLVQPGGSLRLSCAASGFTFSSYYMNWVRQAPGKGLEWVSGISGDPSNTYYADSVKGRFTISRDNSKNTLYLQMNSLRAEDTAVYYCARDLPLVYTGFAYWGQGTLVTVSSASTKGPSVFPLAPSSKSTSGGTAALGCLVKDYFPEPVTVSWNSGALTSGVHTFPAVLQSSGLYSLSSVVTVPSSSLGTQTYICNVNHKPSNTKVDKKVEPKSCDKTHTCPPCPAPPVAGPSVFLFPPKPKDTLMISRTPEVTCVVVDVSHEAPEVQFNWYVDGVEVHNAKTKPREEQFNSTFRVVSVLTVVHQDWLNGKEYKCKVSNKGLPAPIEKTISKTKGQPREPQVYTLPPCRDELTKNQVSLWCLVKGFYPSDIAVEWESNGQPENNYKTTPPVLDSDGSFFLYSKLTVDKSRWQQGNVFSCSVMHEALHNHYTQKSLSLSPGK
light: B1 light
notes: structure 1; CD38 (MOR) x CD3; CH2 G2DCH2
- EC50 (Monkey CD3): 0.42 µM
- EC50 (Human CD38): 0.1 µM
- EC50 (Human CD3ε): 0.405 µM

From US20220098307A1 (WUHAN YZY BIOPHARMA, published 2022)
